# Measured values published in article PMC10028609.
# How the values were obtained:
# [1] = target: His6-MBP-OspR fusion (Kamptonema sp. (formerly Oscillatoria) PCC 6506)
# [2] = target: OspR, untagged (peptide arginase from Kamptonema sp. PCC 6506) (Kamptonema sp. (formerly Oscillatoria) PCC 6506); test: SEC; analytical size exclusion chromatography of OspR in solution (Figure S18); conditions in the SI
# [3] = target: His6-MBP-OspR fusion (Kamptonema sp. (formerly Oscillatoria) PCC 6506); remark: listed apart in the source
substance,measurement,setting,value
"His6-OspA^MD, fully cyclized-and-epimerized OspA precursor protein (natural protein)","KM of OspR toward cyclized-and-epimerized OspA^MD, Michaelis–Menten kinetics by urea detection assay (50 mM TRIS-HCl pH 8.5, 1 mM MnCl2, 25 °C)",[1],6.33 μM
"OspR, untagged (peptide arginase from Kamptonema sp. PCC 6506) (enzyme)",stoichiometry N,[2],2
"His6-OspA precursor protein, unmodified (natural protein)","KM of OspR toward unmodified OspA, Michaelis–Menten kinetics by urea detection assay (50 mM TRIS-HCl pH 8.5, 1 mM MnCl2, 25 °C)",[3],9.01 μM
